# Article PMC10786891, “Massively parallel profiling of RNA-targeting CRISPR-Cas13d”
# Numbering of substitutions follows the chain as printed. Names may count otherwise.
# T1: EsCas13d, nuclease-dead (Eubacterium siraeum, UniProt B0MS50, R295A;H300A;R849A;H854A)
# T1 sequence: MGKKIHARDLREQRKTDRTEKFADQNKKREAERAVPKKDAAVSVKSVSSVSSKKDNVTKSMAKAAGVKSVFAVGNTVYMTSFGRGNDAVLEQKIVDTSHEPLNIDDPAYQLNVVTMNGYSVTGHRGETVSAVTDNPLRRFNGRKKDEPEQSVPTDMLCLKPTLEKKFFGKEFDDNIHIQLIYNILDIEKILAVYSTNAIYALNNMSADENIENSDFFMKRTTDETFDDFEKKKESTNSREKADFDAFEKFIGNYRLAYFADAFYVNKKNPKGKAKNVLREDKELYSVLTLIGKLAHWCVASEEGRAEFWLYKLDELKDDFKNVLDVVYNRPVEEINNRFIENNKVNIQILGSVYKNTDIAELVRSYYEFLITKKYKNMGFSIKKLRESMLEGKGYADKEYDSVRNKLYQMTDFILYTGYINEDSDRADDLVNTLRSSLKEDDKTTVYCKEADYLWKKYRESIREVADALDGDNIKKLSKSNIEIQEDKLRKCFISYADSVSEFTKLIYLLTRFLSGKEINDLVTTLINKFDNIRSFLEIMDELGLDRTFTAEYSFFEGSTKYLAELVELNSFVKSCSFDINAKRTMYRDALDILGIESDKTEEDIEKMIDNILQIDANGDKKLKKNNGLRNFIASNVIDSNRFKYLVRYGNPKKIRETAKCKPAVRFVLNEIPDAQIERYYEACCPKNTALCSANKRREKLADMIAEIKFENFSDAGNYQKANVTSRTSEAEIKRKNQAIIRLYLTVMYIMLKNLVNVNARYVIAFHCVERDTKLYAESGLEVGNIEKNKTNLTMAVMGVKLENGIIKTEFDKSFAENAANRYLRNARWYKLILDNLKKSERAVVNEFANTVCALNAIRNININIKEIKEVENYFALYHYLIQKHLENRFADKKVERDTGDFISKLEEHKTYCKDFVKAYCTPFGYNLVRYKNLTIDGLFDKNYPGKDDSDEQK
# B1: target 1 U10C,C21A (mixed)
# RNA 1: CACCCGUGCAAAAAUGCAGGGGUCUAAAACUGAGCGGAUAACCUCUCUAUGG
# RNA 2: GGGAAUGGAUCCACAUCUACGAAUUCGUACAAUAGAGAGGUCAUCCGCUCACCGAGAUCGGAAGAGCACACGU
# B2: target 1 insG 3' of 21,insU 3' of 21 (mixed)
# RNA 1: B1 RNA 1
# RNA 2: GGGAAUGGAUCCACAUCUACGAAUUCGUACCGUAUAGAGAGGUUAUCCGCUCACCGAGAUCGGAAGAGCACACGU
# B3: target 1 G5A,U11G (mixed)
# RNA 1: B1 RNA 1
# RNA 2: B1 RNA 2 with A31C, U41G, C42U, G47A
# B4: target 1 insA 3' of 8,insG 3' of 2 (mixed)
# RNA 1: B1 RNA 1
# RNA 2: GGGAAUGGAUCCACAUCUACGAAUUCGUACCAUAGAGAGGUUAUACCGCUCGACCGAGAUCGGAAGAGCACACGU
# B5: target 1 insA 3' of 15,insG 3' of 2 (mixed)
# RNA 1: B1 RNA 1
# RNA 2: B4 RNA 2 with G39A, U41G, A43U, U44A, A45U
# B6: target 1 insA 3' of 11,insG 3' of 4 (mixed)
# RNA 1: B1 RNA 1
# RNA 2: B4 RNA 2 with U42A, A43U, U44A, A45U, U50G, C51U, G52C
# B7: target 1 A1C,U11G (mixed)
# RNA 1: B1 RNA 1
# RNA 2: B1 RNA 2 with A31C, U41G, C42U, A51C
# B8: target 1 insA 3' of 19,insC 3' of 13 (mixed)
# RNA 1: B1 RNA 1
# RNA 2: B2 RNA 2 with G32A, U35A, A36G, G37A, A38G, G39A, A40G, G41C
# B9: target 1 insC 3' of 9 (mixed)
# RNA 1: B1 RNA 1
# RNA 2: GGGAAUGGAUCCACAUCUACGAAUUCGUACCAUAGAGAGGUUACUCCGCUCACCGAGAUCGGAAGAGCACACGU
# B10: target 1 insA 3' of 6,insG 3' of 2 (mixed)
# RNA 1: B1 RNA 1
# RNA 2: B4 RNA 2 with A45C, C47A
# B11: target 1 G12C,A16G (mixed)
# RNA 1: B1 RNA 1
# RNA 2: B1 RNA 2 with A31C, A36G, G40C, C42U
# B12: target 1 insU 3' of 18,insA 3' of 13 (mixed)
# RNA 1: B1 RNA 1
# RNA 2: B2 RNA 2 with G32A, A36G, G37A, A38G, G39A, A40G, G41A
# B13: target 1 C4A,G15A (mixed)
# RNA 1: B1 RNA 1
# RNA 2: B1 RNA 2 with A31C, G37A, C42U, C48A
# B14: target 1 insG 3' of 22,insC 3' of 9 (mixed)
# RNA 1: B1 RNA 1
# RNA 2: GGGAAUGGAUCCACAUCUACGAAUUCGUACGCAUAGAGAGGUUACUCCGCUCACCGAGAUCGGAAGAGCACACGU
# B15: target 1 C2A,U3C (mixed)
# RNA 1: B1 RNA 1
# RNA 2: B1 RNA 2 with A31C, C42U, U49C, C50A
# B16: target 1 insU 3' of 22,insA 3' of 7 (mixed)
# RNA 1: B1 RNA 1
# RNA 2: B14 RNA 2 with G31U, C45U, U46C, C47A
# B17: target 1 U11G (mixed)
# RNA 1: B1 RNA 1
# RNA 2: B1 RNA 2 with A31C, U41G, C42U
# B18: target 1 C4A,G13A (mixed)
# RNA 1: B1 RNA 1
# RNA 2: B1 RNA 2 with A31C, G39A, C42U, C48A
# B19: target 1 A9U,U11G (mixed)
# RNA 1: B1 RNA 1
# RNA 2: B1 RNA 2 with A31C, U41G, C42U, A43U
# B20: target 1 insA 3' of 17,insU 3' of 17 (mixed)
# RNA 1: B1 RNA 1
# RNA 2: B2 RNA 2 with G32A, U35G, G37U
# B21: target 1 insA 3' of 12,insU 3' of 1 (mixed)
# RNA 1: B1 RNA 1
# RNA 2: B4 RNA 2 with U41A, A43U, U44A, A45U, G52A, A53U
# B22: target 1 C7G,G13U (mixed)
# RNA 1: B1 RNA 1
# RNA 2: B1 RNA 2 with A31C, G39U, C42U, C45G
# B23: target 1 insG 3' of 7,insA 3' of 7 (mixed)
# RNA 1: B1 RNA 1
# RNA 2: B4 RNA 2 with A45C, C46G, C47A, G48C, C49G, U50C, C51U, G52C
# B24: target 1 insU 3' of 17,insG 3' of 6 (mixed)
# RNA 1: B1 RNA 1
# RNA 2: B14 RNA 2 with G31C, C32A, A33U, U34A, A35G, G36U, C45U, U46C, C48G
# B25: target 1 insU 3' of 17,insC 3' of 13 (mixed)
# RNA 1: B1 RNA 1
# RNA 2: B2 RNA 2 with G32A, U35G, A36U, G37A, A38G, G39A, A40G, G41C
# B26: target 1 G5U,C21U (mixed)
# RNA 1: B1 RNA 1
# RNA 2: B1 RNA 2 with A31U, C42U, G47U
# B27: target 1 insC 3' of 5,insA 3' of 4 (mixed)
# RNA 1: B1 RNA 1
# RNA 2: B4 RNA 2 with A45C, C47G, G48C, U50A, C51U, G52C
# B28: target 1 insC 3' of 20,insC 3' of 16 (mixed)
# RNA 1: B1 RNA 1
# RNA 2: B2 RNA 2 with G32A, U33C, A34U, U35A, A36G, G37A, A38C
# B29: target 1 insU 3' of 22,insA 3' of 21 (mixed)
# RNA 1: B1 RNA 1
# RNA 2: B2 RNA 2 with C31U, G32C, U33A
# B30: target 1 insA 3' of 11,insC 3' of 11 (mixed)
# RNA 1: B1 RNA 1
# RNA 2: B2 RNA 2 with G32A, U35G, A40G, G41U, G42A, U43C
# B31: target 1 insC 3' of 20,insG 3' of 10 (mixed)
# RNA 1: B1 RNA 1
# RNA 2: B14 RNA 2 with G31C, C32A, A33C, A44G, C45A
# B32: target 1 U10A,A14G (mixed)
# RNA 1: B1 RNA 1
# RNA 2: B1 RNA 2 with A31C, A38G, C42A
# B33: target 1 G5A,U11A (mixed)
# RNA 1: B1 RNA 1
# RNA 2: B1 RNA 2 with A31C, U41A, C42U, G47A
# B34: target 1 insG 3' of 8,insG 3' of 4 (mixed)
# RNA 1: B1 RNA 1
# RNA 2: B4 RNA 2 with A45G, U50G, C51U, G52C
# B35: target 1 insU 3' of 14,insC 3' of 14 (mixed)
# RNA 1: B1 RNA 1
# RNA 2: B2 RNA 2 with G32A, U35G, G39U, A40C
# Biological target: T1, EsCas13d, nuclease-dead
# Test: crRNA (strand 1, pre-loaded); Mg2+; 40 mM Tris-HCl pH 7.5, 150 mM NaCl, 6 mM MgCl2, 1 mM DTT, 0.1% Tween-20, 0.2 mg/ml BSA; 25 C; 10 min per concentration, then washed
# Details: tags: His6-TwinStrep-SUMO cleaved; N-terminal SNAP kept (SNAP-Surface 488); label: 3' end held by stalled T7 RNA polymerase
row,Binder,Kd
1,B1,60 ± 8 nM
2,B2,17.1 ± 1.2 nM
3,B3,51 ± 5 nM
4,B4,16.7 ± 0.8 nM
5,B5,6.7 ± 0.6 nM
6,B6,9.7 ± 0.5 nM
7,B7,50 ± 17 nM
8,B8,35.3 ± 3.3 nM
9,B9,10.8 ± 0.4 nM
10,B10,27 ± 5 nM
11,B11,75 ± 10 nM
12,B12,22.6 ± 2.4 nM
13,B13,20.9 ± 1.8 nM
14,B14,26.3 ± 1.6 nM
15,B15,13 ± 1 nM
16,B16,21.9 ± 1.3 nM
17,B17,22.4 ± 1.2 nM
18,B18,14 ± 4 nM

row,Binder,Kd
1,B19,10.1 ± 0.8 nM
2,B20,13.4 ± 1.2 nM
3,B21,37 ± 10 nM
4,B22,54 ± 13 nM
5,B23,10.5 ± 0.7 nM
6,B24,29 ± 5 nM
7,B25,44 ± 9 nM
8,B26,5.96 ± 0.31 nM
9,B27,13.9 ± 1.6 nM
10,B28,16 ± 3 nM
11,B29,66 ± 6 nM
12,B30,12.3 ± 0.9 nM
13,B31,13.4 ± 2 nM
14,B32,12.3 ± 0.5 nM
15,B33,54 ± 10 nM
16,B34,7.1 ± 0.4 nM
17,B35,37 ± 4 nM
